Data taken from IntAct's records for PubMed 20671708.

Biological target: ago2_human AGO2 (UniProt Q9UKV8)
Sequence (Q9UKV8 whole entry): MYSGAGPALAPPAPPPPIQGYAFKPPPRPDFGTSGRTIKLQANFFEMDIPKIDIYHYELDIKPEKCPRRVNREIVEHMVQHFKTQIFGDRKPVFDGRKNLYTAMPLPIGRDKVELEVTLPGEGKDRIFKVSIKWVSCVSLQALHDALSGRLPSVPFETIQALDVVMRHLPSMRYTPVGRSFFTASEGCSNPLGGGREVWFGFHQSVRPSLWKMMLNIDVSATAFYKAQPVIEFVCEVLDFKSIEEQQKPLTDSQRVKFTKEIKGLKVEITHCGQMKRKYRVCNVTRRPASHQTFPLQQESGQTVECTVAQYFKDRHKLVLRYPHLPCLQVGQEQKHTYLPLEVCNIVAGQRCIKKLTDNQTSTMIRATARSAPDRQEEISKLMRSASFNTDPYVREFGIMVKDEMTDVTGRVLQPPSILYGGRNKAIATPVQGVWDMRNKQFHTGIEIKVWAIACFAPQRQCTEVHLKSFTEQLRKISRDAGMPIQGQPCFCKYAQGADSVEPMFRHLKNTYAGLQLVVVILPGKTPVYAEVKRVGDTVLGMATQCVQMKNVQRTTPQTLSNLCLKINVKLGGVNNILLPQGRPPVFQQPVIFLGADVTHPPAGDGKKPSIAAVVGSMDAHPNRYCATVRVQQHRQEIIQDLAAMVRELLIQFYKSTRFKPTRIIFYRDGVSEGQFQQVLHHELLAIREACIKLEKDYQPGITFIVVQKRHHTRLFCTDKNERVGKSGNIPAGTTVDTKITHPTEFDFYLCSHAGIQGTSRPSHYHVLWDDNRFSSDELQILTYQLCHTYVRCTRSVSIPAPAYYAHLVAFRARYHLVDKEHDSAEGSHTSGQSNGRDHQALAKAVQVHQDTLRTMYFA

| effect of a mutation on the interaction | Substance |
| --- | --- |
| increasing interaction | Leucine-rich repeat serine/threonine-protein kinase 2 (Homo sapiens), Q5S007 G2019S |
| increasing interaction | Leucine-rich repeat serine/threonine-protein kinase 2 (Homo sapiens), Q5S007 K1906M;D1994A;D2017A |
